The source of these data is patent US20120231024A1 (UNIVERSIT TSKLINIKUM FREIBURG, published 2012).

This test concerns the target T1, prostate specific membrane antigen (PSMA), native, on the cell surface (human, UniProt Q04609 1-750).
T1 construct: whole, on cells; also called cell-surface PSMA; native PSMA
In words: flow cytometry saturation curve on LNCaP cells; concentration at 50% saturation of PSMA sites. (A flow cytometer gives signals particle by particle.)

T1 sequence (Q04609 whole entry): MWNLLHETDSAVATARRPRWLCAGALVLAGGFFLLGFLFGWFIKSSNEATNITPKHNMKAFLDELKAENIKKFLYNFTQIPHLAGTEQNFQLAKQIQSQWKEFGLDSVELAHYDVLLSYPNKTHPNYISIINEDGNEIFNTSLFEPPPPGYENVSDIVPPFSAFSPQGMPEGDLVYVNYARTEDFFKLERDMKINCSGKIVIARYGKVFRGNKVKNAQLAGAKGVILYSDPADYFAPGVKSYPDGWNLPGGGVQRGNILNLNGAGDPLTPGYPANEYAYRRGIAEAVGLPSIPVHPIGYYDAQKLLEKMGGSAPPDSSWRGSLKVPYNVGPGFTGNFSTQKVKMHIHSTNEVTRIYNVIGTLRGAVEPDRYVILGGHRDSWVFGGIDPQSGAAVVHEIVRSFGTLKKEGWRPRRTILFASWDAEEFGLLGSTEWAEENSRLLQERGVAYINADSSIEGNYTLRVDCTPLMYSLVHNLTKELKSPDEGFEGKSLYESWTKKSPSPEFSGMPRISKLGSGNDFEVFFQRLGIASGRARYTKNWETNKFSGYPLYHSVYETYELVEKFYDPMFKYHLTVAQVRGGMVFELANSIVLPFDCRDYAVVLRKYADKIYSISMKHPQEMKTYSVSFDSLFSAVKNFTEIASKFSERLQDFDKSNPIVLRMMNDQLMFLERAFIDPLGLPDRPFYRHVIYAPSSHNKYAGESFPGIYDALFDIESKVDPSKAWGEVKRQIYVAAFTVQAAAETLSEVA
Description: The binding properties of the isolated monoclonal antibodies or an antigen binding portion thereof to the native PSMA were compared by treating LNCAP cells with increasing concentrations of the first step anti-PSMA Ab followed by incubation with the second step PE-labeled antibody. From the resulting saturation curves the antibody concentration reaching 50% saturation of PSMA sites can be read.

B1: scFv A5 (scFv)
scFv: MADVKLVESGGGLVKPGESLKLSCIASGFTFSDYYMYWVRQTPEKRLEWVAIISDGGYYTYYSDIIKGRFTISRDNAKNNLYLQMSSLKSEDTAMYYCTRGFPLLRHGAMDYWGLGTSVTVSSTKTTPKLEEGEFSEARVDIQMTQSPKFMSTSVGDRVSVTCKASQNVDTNVAWYQQKPGQSPKALIYSASYRYSDVPDRFTGSESGTDFTLTISNVQSEDLAEYFCQQYDSYPYTFGGGTKLEIKRADAAA
notes: also called scFv AS [sic]
In general, EC50 refers to the midpoint of the concentration-response curve. On to B1, for which the EC50 amounted to 60 nM.
